The results in this text go back to article PMC10450692.

Targets include Aβ(1–38); scrambled Aβ(1–40); Aβ(1–16); Aβ(1–28).
Assay in all cases: native MS; native nanoESI ion mobility MS (Synapt G2-S), 20 μM peptide in 200 mM ammonium acetate pH 6.8, positive ion mode, 25 °C source temperature; self-association of SEC-purified monomer
The target in assay [1] is Aβ(1–40)CC (A21C and A30C double mutant with an intramolecular disulfide bond).
Assay [2] deals with amyloid-β peptide Aβ(1–40).

The substance Aβ(1–38) (peptide) showed a stoichiometry N with Aβ(1–38) greater than 6.
In turn, “Aβ(1–40)CC (A21C and A30C double mutant with an intramolecular disulfide bond) (peptide)” returned a stoichiometry N in assay [1] greater than 10.
In the assay with scrambled Aβ(1–40), scrambled Aβ(1–40) (peptide) gave a stoichiometry N of 2.
For Aβ(1–16) (peptide), in the assay with Aβ(1–16), the stoichiometry N was 2.
In turn, Aβ(1–28) (peptide) returned a stoichiometry N with Aβ(1–28) of 6.
Take amyloid-β peptide Aβ(1–40): in assay [2], the stoichiometry N was greater than 8.
